Experimental data as given in the supplement of paper PMC10567573.
± gives the standard deviation.

Experiment: protein stability index of a GFP-peptide fusion (GPS, HEK-293T) (PSI 1-6); higher = more stable
[1] = treatment: DMSO, c terminus: a fixed tail appended
[2] = treatment: MLN4924 1 uM, 8 h, c terminus: a fixed tail appended
[3] = treatment: DMSO, c terminus: native
[4] = treatment: MLN4924 1 uM, 8 h, c terminus: native
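Note: 24-mer peptide tiles fused after GFP, lentivirally expressed, FACS-sorted into six equal bins by GFP/DsRed ratio, decoded by Illumina sequencing, PSI is the read-weighted mean bin number.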

Sequence | protein stability index [1] | protein stability index [2] | protein stability index [3] | protein stability index [4]
PRGARCSNGFPERDPPRPGPSRPA [GCH1] | 4.71 ± 0.064 | 4.47 ± 0.38 | – | –
PRLQELLGPSPQRDPQAVKERALS [ZNF263] | 4.6 ± 0.27 | 4.65 ± 0.3 | – | –
PRNGDQWHEIRQGRLPRIPQVLSQ [WEE1] | 3.12 ± 0.17 | 3.32 ± 0.5 | – | –
PRNKTENGLTPKKKIQVNSKPSIQ [ATF6] | 4.24 ± 0.31 | 3.96 ± 0.17 | – | –
PSDLDQFSDSSLIEDSQALHKRPK [LURAP1L] | 5.49 ± 0.24 | 5.43 ± 0.11 | – | –
PSDPPAMSPGPLDALSSPTSVQEA [C2CD2L] | 5.54 ± 0.18 | 5.42 ± 0.2 | – | –
PSLSPGSSCVKYLIFLSNFPFSLL [TSPAN10] | 2.8 ± 0.85 | 2.83 ± 0.6 | – | –
PSPSEVITPWTPSPSEKNSSFTWS [SMTNL2] | 4.22 ± 0.095 | 4 ± 0.062 | – | –
PTHPSSTHALAEWASRREAFAQRP [CDC25B] | 4 ± 0.26 | 3.91 ± 0.3 | – | –
PTIDTGYDSQPQDVLGIRQLERPL [TRAF3IP2] | 4.2 ± 0.28 | 4.4 ± 0.37 | – | –
PTPDDHVFRWLAYSYASTHRLMTD [CPXM2] | 2.64 ± 0.49 | 2.62 ± 0.59 | – | –
PTPKCLRLCFFPFVENGHSESSGQ [CFHR2] | 2.54 ± 0.093 | 2.72 ± 0.24 | – | –
PTRNDLESGLGHFSLRVHTGCHKK | 4.06 ± 0.18 | 4.11 ± 0.18 | – | –
PVANSGTKPKTTAIQGISEKEKAE [DLC1] | 5.51 ± 0.28 | 5.68 ± 0.28 | – | –
PVGRSWHSLTPVSSDHLFLFGGFT [KLHDC2] | 2.3 ± 0.53 | 1.87 ± 0.096 | – | –
PVIIAAVGTRQNEELPCTCPLCTS [RHOBTB3] | 3.76 ± 0.37 | 3.92 ± 0.35 | – | –
PVLQSRTGLVYDQNMMNHCNLWDS [HDAC6] | 2.75 ± 0.41 | 2.93 ± 0.33 | – | –
PVPSAPVIDLAESLVADNCVTLVW [FSD1] | 2.56 ± 0.37 | 2.1 ± 0.24 | – | –
PVRKLYDDCSSTIVEDPQTKCEYM [ESRRG] | 4.47 ± 0.21 | 4.64 ± 0.19 | – | –
PYTELRKQPLRKYVTPSDFDQLKQ [EFHC1] | 3.57 ± 0.2 | 3.51 ± 0.11 | – | –
PYTPSPSSSRPISPGLSYASHTVG [CCDC6] | 3.84 ± 0.17 | 3.69 ± 0.19 | – | –
QAEVLSRQITSPVSGINGDIRAKK [HNF4A] | 5.05 ± 0.22 | 5.09 ± 0.036 | – | –
QAFQLPKLGALLSRCRKLVEYFQQ [ZBED1] | 2.52 ± 0.5 | 2.43 ± 0.29 | – | –

Sequence | protein stability index [1] | protein stability index [2] | protein stability index [3] | protein stability index [4]
QALAQAIKEAKEQHPDMSVTKVVV [EPB41L3] | 2.44 ± 0.34 | 2.53 ± 0.27 | – | –
QALLRISLDKVQRSLGPRAPSLRR [SERTAD3] | 2.68 ± 0.46 | 2.62 ± 0.36 | – | –
QAMEEDLIVGLQGMDLNLEAEALA [HDAC6] | 4.8 ± 0.23 | 4.92 ± 0.25 | – | –
QAPGQPPGNQAEHGAVTVGGTSVG [ZBTB22] | 4.9 ± 0.43 | 5.17 ± 0.21 | – | –
QCDALIDALNRRKAQLLARVNKEH [TRIM9] | 3.05 ± 0.2 | 3.27 ± 0.23 | – | –
QDNNCHFDAALVSFINFFTSVLAT [SLC6A17] | 2.91 ± 0.3 | 2.75 ± 0.3 | – | –
QDPLKFYKKIYFCHSCQLYLPSTE [IQUB] | 1.94 ± 0.41 | 2.12 ± 0.66 | – | –
QDVVQAADLLLLTDLKTLCCEFLE [GAN] | 2.55 ± 0.13 | 2.6 ± 0.27 | – | –
QEILHRDLKLGNFFINEAMELKVG [PLK2] | 2.58 ± 0.25 | 2.76 ± 0.31 | – | –
QEPDFIDDIEEKTPISNEVEMESE [KMT2E] | 5.24 ± 0.22 | 5.43 ± 0.23 | – | –
QEPEVPCAAVLPGKPGDRNCPEFP [RSPH3] | 5.21 ± 0.12 | 5.13 ± 0.14 | – | –
QEVPHEGPMCDLLWSDPDDRGGWG [PPP2CA] | 4.39 ± 0.32 | 4.61 ± 0.2 | – | –
QGSQASQAPPVPGPPPGAPHTPQT [NR2F2] | 5.13 ± 0.27 | 5 ± 0.51 | – | –
QHYTETALDEIKLLKCVRESDPSD [SRPK2] | 4.82 ± 0.22 | 4.92 ± 0.16 | – | –
QLEEKLEIANEDRKHALERFEQEA [CCDC89] | 5.4 ± 0.19 | 5.4 ± 0.12 | – | –
QLMTSQFISVFSNLLESKADGIEV [ZER1] | 2.89 ± 0.62 | 2.5 ± 0.54 | – | –
QLSRELSTLRNLFKQLPEPLLASS [CEBPB] | 2.28 ± 0.1 | 2.37 ± 0.29 | – | –
QMASQSSASHYKLQVIKALKSSGL [M1AP] | 2.82 ± 0.26 | 2.77 ± 0.21 | – | –
QMELLLVNKLKWNLAAMTPHDFIE [CCND1] | 2.91 ± 0.6 | 2.71 ± 0.5 | – | –
QNNENNISCVERGWSTPPKCRSTI [CFHR2] | 3.97 ± 0.29 | 4.11 ± 0.34 | – | –
QNVVVKTLWKHQFAWPFYQPVDAI [BRD3] | 2.31 ± 0.46 | 2.29 ± 0.45 | – | –
QPAKKPLLWSDPADNKIVSHLLVA [ESRRG] | 2.36 ± 0.17 | 2.63 ± 0.26 | – | –
QPPEFRNESSLASTLKTLLFFTAL [VMA21] | 2.42 ± 0.32 | 2.39 ± 0.11 | – | –

Sequence | protein stability index [1] | protein stability index [2] | protein stability index [3] | protein stability index [4]
QPSQQQQPPPQEEPGTPSSSPDDK [KLHL14] | 5.6 ± 0.26 | 5.59 ± 0.15 | – | –
QPYPLPHVRHMAYQLCHALRFLHE [CLK3] | 2.34 ± 0.1 | 2.1 ± 0.23 | – | –
QQHRQGRSHHLEMVIQLLAIMCVS [PTGFR] | 2.61 ± 0.51 | 2.12 ± 0.44 | – | –
QRFRQFQYREAAGPHEAFNKLWEL [ZNF449] | 2.17 ± 0.18 | 2.33 ± 0.19 | – | –
QRGQEPLGPGALHFDLRDDDDAEE [TCF25] | 5.36 ± 0.39 | 5.53 ± 0.33 | – | –
QRPLVSVTVSDASWVSELLWSLFV [AUP1] | 2.36 ± 0.2 | 2.14 ± 0.2 | – | –
QRPRFITSGGSNIIYVASNHFVWR [VPS39] | 2.12 ± 0.23 | 2.49 ± 0.25 | – | –
QSDEEQDSVKVALLETNPYLLALT [CLPTM1] | 3.92 ± 0.19 | 4.16 ± 0.3 | – | –
QSWMWRGLTFLLPFLFFGHFWQLF [TMEM120A] | 2.66 ± 1.1 | 2.79 ± 0.25 | – | –
QTHSNTIVVSLQSKLASMSNDFKS [STX5] | 2.8 ± 0.11 | 2.92 ± 0.24 | – | –
QVDVRFFGHHHQRAWIPSENIQDI [ZMYND11] | 2.74 ± 0.22 | 2.94 ± 0.17 | – | –
QVQCHSYTGYCWCVTPNGRPISGT [SMOC2] | 2.08 ± 0.26 | 2.37 ± 0.38 | – | –
QVSHDFLETRFKIQQLLEPQQYMA [FBXO34] | 3.85 ± 0.49 | 4.15 ± 0.29 | – | –
RACSHLIRLMQRCWQGDPRVRPTF [RIPK4] | 2.87 ± 0.45 | 2.83 ± 0.2 | – | –
RALEEVEMKLQKNFLTQRENTIAG [C10orf62] | 3.48 ± 0.081 | 3.73 ± 0.33 | – | –
RALLRRFPRMLLVDRLPGLQGALD [ZSWIM9] | 2.49 ± 0.25 | 2.52 ± 0.24 | – | –
RCFYTRKDVRRHLVVHTGCKDFLC [PLAGL1] | 2.11 ± 0.47 | 2.19 ± 0.39 | – | –
RCLHMDQLQDFNIPQAGGWGPWGP [ADAMTS4] | 2.24 ± 0.35 | 2.24 ± 0.75 | – | –
RCMQCDAKFDFLTRKHHCRRCGKC [ZFYVE21] | 3.94 ± 0.34 | 4.3 ± 0.3 | – | –
RCRLSLDDRVLSSLVRDTIARVHG [POP5] | 2.29 ± 0.25 | 2.35 ± 0.27 | – | –
RDQIFRYVHDPECVATTGDITVSV [FBXO3] | 2.52 ± 0.2 | 2.42 ± 0.27 | – | –
RDSYSSSSRGAPRGGGRGGSRSDR [RBMX] | 5.41 ± 0.24 | 5.44 ± 0.17 | – | –
REAGFHQYEVSNFARNGALSTHNW [RSAD1] | 2.97 ± 0.28 | 3.08 ± 0.2 | – | –

Sequence | protein stability index [1] | protein stability index [2] | protein stability index [3] | protein stability index [4]
REFKVTDARDGQSRTVRQFQFTDW [PTPRD] | 3.16 ± 0.34 | 3.11 ± 0.58 | – | –
REHAKARVDHGAEIITQSPGRSSV [MAP2] | 4.75 ± 0.11 | 4.89 ± 0.12 | – | –
REHELLCRADHGLLLERAAAGSPR [ISL2] | 3.82 ± 0.31 | 3.89 ± 0.062 | – | –
REKIMKLPLPESLKAYLTYFRDK [PCMTD1] | – | – | 2.05 ± 0.36 | 2.59 ± 0.34
RELESREAELRRRDTFYKEQLERI [CHCHD6] | 4.56 ± 0.12 | 4.87 ± 0.39 | – | –
REMVMYSITVAFWLLNSWLWFRR [MFF] | – | – | 2.27 ± 0.96 | 2.48 ± 0.86
RGEAEAFAIGARARAEAEQMAKKA [FLOT1] | 5.33 ± 0.27 | 5.17 ± 0.26 | – | –
RGNRLKTTSWGLLSLGALVALCWQ [SCNN1D] | 2.3 ± 0.26 | 2.16 ± 0.24 | – | –
RGPVVPKHSTFGQSLTQRLHALKL [GNAS] | 2.4 ± 0.29 | 2.36 ± 0.28 | – | –
RHLNDDDVTGSVKSERRNLLEDDS [VAMP4] | 5.28 ± 0.2 | 5.42 ± 0.19 | – | –
RHPPKVGDDSDLSEGFESDSSHDS [SMG5] | 5.46 ± 0.18 | 5.51 ± 0.21 | – | –
RHRSADVLGVADGVGGWRDYGVDP [PPTC7] | 4.14 ± 0.39 | 4.07 ± 0.48 | – | –
RIDSQFLIGDTLLVAPVLEPGKQE [MYORG] | 3.77 ± 0.18 | 3.81 ± 0.26 | – | –
RIFAHKIYLSTSSSKFYDLFLMDL [RHOBTB2] | 2.97 ± 0.31 | 2.86 ± 0.66 | – | –
RIIPNFYPPLEGHVRQGVFSSLNH [INTS3] | 2.28 ± 0.025 | 2.3 ± 0.16 | – | –
RILDELTLCKADLEAQVESLKEEL [KRT36] | 3.76 ± 0.35 | 3.68 ± 0.54 | – | –
RKDMIAEKLAPSEITEELPSSQLM [ZNF396] | 4.98 ± 0.16 | 4.86 ± 0.27 | – | –
RKFYVHIKPAPARAPACSPEAAAA [FCHO1] | 2.66 ± 0.3 | 2.82 ± 0.35 | – | –
RKISVNAKDEDQWTALHFAAQNGD [RIPK4] | 4.19 ± 0.26 | 4.59 ± 0.53 | – | –
RMAAPRAEALFDFTGNSKLELNFK [NCF4] | 3.33 ± 0.2 | 3.46 ± 0.28 | – | –
